B1: Bombyx mori aminopeptidase N (receptor)
chain: LSPIPVPEDEWVEFARMLRDPAFRLPTTTRPRHYQVTLTPYFDVVPANVNPFTFDGEVTIYTSPTVANVNEVVIHCNDLTIQSLSIGYQSGTNVVDITATGQTFACEMPFSFLRIRTTEALVLNREYIIKSTFRGNLQTNMRGFYRSWYVDSTGRRWMGTTQFQPGHARQAFPCYDEPGFKATFDITMNREESFSPTISNMPIRTTNTLANGRVSETFWTTPVTSTYLLAFIVSHYTVVSTNNNALRPFDIYARNNVGRTGDWSLEIGEKLLEAMEAYTQIPYYTMAENINMKQAAIPDFSAGAMENWGLLTYREALILYDPLNSNHFYKQRVANIVAHEIAHMWFGNLVTCAWWDNLWLNEGFARFYQYYLTASVAPELGYETRFIVEQVQMAMFSDSVDTAHALTDLNVNDPTTVSAHFSTITYARGAAILRMTQHLLGVETFVKGLRNYLRERQFNVAEPHHLFTALDAAAVEDGALNGYGGITIDTYFRTWSEKAGHPLLTVTINQRTGEMIVTQERWERNTGVSQFPSLWHIPITWTRAGAPEFEDLKPSQFISQQVTSINRGTTGLEWVIFNKQEAGFYRVNYDDTNWALLTRALRSSSRTAIHQLNRAQIVDDIFQLARANVMKYNRAFNILSFLQFEDEYAPWLAAISGFNFLIRRLAHDSTNAALLQKLILELSPAVVAKLGYLEPENGSYMTDLQRMYVMEFLCNVGHEECNNFGTQAFRRWSTGTFIPANMRPWVYCAGLRHGTAEDFNFFWNRYLQEDLSSEKVVMLNVAGCTTDQASLNRFLDAIVSGNDDIRPQDYNAALTSAITSNEINTLRAFQWLRNNVDQATRTLGSVSTILNTIIGRLLNEEQINEVSNWLTANQNTLGATYSTALRAIETTRSNLVWSQQRISEFTNYFESGYVEDVIEEITEAPPTAPPTAPPTEAPAVTPAPDSANVAALSFITLIITLAVNLA

Experiments:
[1] = biological target: Bombyx mori cadherin-like protein BtR175 (Bombyx mori (endogenous in larval midgut))
[2] = biological target: Bombyx mori cadherin-like protein BtR175 (Bombyx mori (endogenous in larval midgut)); assay: SPR; receptors (100-200 ng) amine-coupled to a CM5 chip; toxin 100-1000 nM injected in HBS pH 7.4 (10 mM Hepes, 150 mM NaCl, 3.4 mM EDTA) at 50 ul/min; blank flowcell subtracted; 1:1 Langmuir fit; apparent rate constants
[3] = biological target: T1, Bacillus thuringiensis Cry1Aa insecticidal protein, wild type, trypsin-activated toxin (Bacillus thuringiensis, UniProt P0A366 1-1176); assay: as above; conditions: both partners purified
T1 construct: trypsin-resistant 65 kDa toxin cut from the solubilized protoxin; also called Cry1Aa (Wt); Cry1Aa wt; source: E. coli MV1190 containing pBN-1Aa; crystal inclusion bodies solubilized, trypsin-digested, purified (Superdex 200, monomeric fraction)

Molecule | LC50 against B. mori larvae (surface contamination bioassay, mortality after 5 days) [1] | Kd [2] | koff [2] | kon [2] | Kd [3] | koff [3] | kon [3]
Cry1Aa mutant toxin F328A, trypsin-activated (from UniProt P0A366 1-1176) (natural protein) | 41.5 ng/ccm | 60.7 nM | 9.1e-05 s⁻¹ | 1500 M⁻¹ s⁻¹ | – | – | –
Bacillus thuringiensis Cry1Aa insecticidal protein, wild type, trypsin-activated toxin (from UniProt P0A366 1-1176) (natural protein) | – | 2.6 nM | 3.3e-05 s⁻¹ | 13000 M⁻¹ s⁻¹ | – | – | –
B1 | – | – | – | – | 75 nM | 0.0015 s⁻¹ | 21000 M⁻¹ s⁻¹
